B1: 2-C-Methyl-D-erythritol-4-phosphate cytidyltransferase (IspD) from Escherichia coli (enzyme, Escherichia coli K12, UniProt Q46893 1-236, looked up)
chain: MATTHLDVCAVVPAAGFGRRMQTECPKQYLSIGNQTILEHSVHALLAHPRVKRVVIAISPGDSRFAQLPLANHPQITVVDGGDERADSVLAGLKAAGDAQWVLVHDAARPCLHQDDLARLLALSETSRTGGILAAPVRDTMKRAEPGKNAIAHTVDRNGLWHALTPQFFPRELLHDCLTRALNEGATITDEASALEYCGFHPQLVEGRADNIKVTRPEDLALAEFYLTRTIHQENT
notes: IspD of E. coli K12; ispD gene PCR amplified and inserted into pET-22b; histidine tag removed by thrombin; also called EcIspD; source: E. coli BL21 (DE3) (pET-22b), purified (Ni-NTA, Resource Q, Superdex 75); not shown: His6, C-terminal, cleaved
B2: 2-C-Methyl-D-erythritol 2,4-cyclodiphosphate synthase (IspF) from Escherichia coli (enzyme, Escherichia coli K12, UniProt P62617 1-159, looked up)
chain: MRIGHGFDVHAFGGEGPIIIGGVRIPYEKGLLAHSDGDVALHALTDALLGAAALGDIGKLFPDTDPAFKGADSRELLREAWRRIQAKGYTLGNVDVTIIAQAPKMLPHIPQMRVFIAEDLGCHMDDVNVKATTTEKLGFTGRGEGIACEAVALLIKATK
notes: IspF of E. coli K12; ispF gene PCR amplified and inserted into pET-22b; histidine tag removed by thrombin; also called EcIspF; source: E. coli BL21 (DE3) (pET-22b), purified (Ni-NTA, Resource Q, Superdex 75); not shown: His6, C-terminal, cleaved
B3: 2-C-Methyl-D-erythritol 2,4-cyclodiphosphate synthase (IspF) from Bacillus subtilis (enzyme, Bacillus subtilis 168)
chain: MFRIGQGFDVHQLVEGRPLIIGGIEIPYEKGLLGHSDADVLLHTVADACLGAVGEGDIGKHFPDTDPEFKDADSFKLLQHVWGIVKQKGYVLGNIDCTIIAQKPKMLPYIEDMRKRIAEGLEADVSQVNVKATTTEKLGFTGRAEGIAAQATVLIQKG
notes: IspF of B. subtilis 168 (DSM 23778); ispF gene amplified from genomic DNA, ~477 bp product, cloned BamHI/XhoI into pGEX-6P-1; GST removed by PreScission protease; also called BsIspF; MEcDP synthase; source: E. coli DH5α (pGEX-6P-1), purified (Glutathione Sepharose 4 Fast Flow, Resource Q, Superdex 75)
B4: 2-C-Methyl-D-erythritol-4-phosphate cytidyltransferase (IspD) from Bacillus subtilis (enzyme, Bacillus subtilis 168, UniProt Q06755 1-232, looked up)
chain: MSYDVVIPAAGQGKRMKAGRNKLFIELKGDPVIIHTLRVFDSHRQCDKIILVINEQEREHFQQLLSDYPFQTSIELVAGGDERQHSVYKGLKAVKQEKIVLVHDGARPFIKHEQIDELIAEAEQTGAAILAVPVKDTIKRVQDLQVSETIERSSLWAVQTPQAFRLSLLMKAHAEAERKGFLGTDDASLVEQMEGGSVRVVEGSYTNIKLTTPDDLTSAEAIMESESGNKHV
notes: IspD of B. subtilis 168 (DSM 23778); ispD gene amplified from genomic DNA, ~699 bp product, cloned BamHI/XhoI into pGEX-6P-1; GST removed by PreScission protease; also called BsIspD; source: E. coli DH5α (pGEX-6P-1), purified (Glutathione Sepharose 4 Fast Flow, Resource Q, Superdex 75)

Legend:
[1] = target: the molecule itself; experiment: SEC; Superdex200 10/300 GL; single E. coli proteins and triple mixture (0.2 mg each, 250 μl); 100 mM NaCl, 25 mM Tris/HCl pH 8.0; 1 mM MgCl2, 1 mM MEP, 1 mM CTP if IspD present; 30°C 30 min
[2] = target: the molecule itself; experiment: crystal structure; BsIspF native and with CMP, space group P2(1), six monomers in the asymmetric unit, 1.99 Å
[3] = target: the molecule itself; experiment: SEC; Superdex75 10/300 GL; single B. subtilis proteins and triple mixture (0.2 mg each, 250 μl); 100 mM NaCl, 25 mM Tris/HCl pH 8.0; 1 mM MgCl2, 1 mM MEP, 1 mM CTP if IspD present; 30°C 30 min

| Protein | stoichiometry N [1] | other results |
| --- | --- | --- |
| B1 | 2 | – |
| B2 | 3 | – |
| B3 | – | stoichiometry N [2]: 3 |
| B4 | – | stoichiometry N [3]: 2 |

From article PMC5821942, “Crystal structure of IspF from Bacillus subtilis and absence of protein complex assembly amongst IspD/IspE/IspF enzymes in the MEP pathway” (Bioscience Reports, 2018)
